Substrate in the data set: Nc1ncnc2c1ncn2[C@@H]1O[C@H](CO)[C@@H](O)[C@H]1O
The data set can be described thus: Absorbance-based assay of ADA in solution. Conditions: other: ADA in solution, absorbance assay (FIG. 7). In kind it is biochemical, bovine. As to the method: FIG. 7 is a graph showing the assessment of Km values for ADA in solution using an absorbance-based assay.
The KI value was determined by extrapolation of IC50 values to the point of zero substrate concentration. The method is based on the derivation described by Cheng and Prusoff,^26 as shown below. Km values were obtained using immobilized enzyme reactor columns by plotting the concentration of product formed upon infusion of a given concentration of substrate and fitting the data to the Michaelis-Menten equation. The data was compared to that obtained using a conventional absorbance based assay (see below).^27

B1: adenosine deaminase (ADA) in solution (Bos taurus) (protein)
chain: MAQTPAFNKPKVELHVHLDGAIKPETILYYGRKRGIALPADTPEELQNIIGMDKPLSLPEFLAKFDYYMPAIAGCREAVKRIAYEFVEMKAKDGVVYVEVRYSPHLLANSKVEPIPWNQAEGDLTPDEVVSLVNQGLQEGERDFGVKVRSILCCMRHQPSWSSEVVELCKKYREQTVVAIDLAGDETIEGSSLFPGHVKAYAEAVKSGVHRTVHAGEVGSANVVKEAVDTLKTERLGHGYHTLEDATLYNRLRQENMHFEVCPWSSYLTGAWKPDTEHPVVRFKNDQVNYSLNTDDPLIFKSTLDTDYQMTKNEMGFTEEEFKRLNINAAKSSFLPEDEKKELLDLLYKAYGMPSPASAEQCL
notes: Adenosine deaminase (ADA, Type V, from bovine intestine, EC 3.5.4.4); purchased Sigma-Aldrich (Oakville, Ontario, Canada) Type V (catalogue number not given); host or cells: bovine intestine (tissue-derived)
On to B1, for which the Km was found to be 89 µM.

The values above are taken from patent US20060226082A1, “Methods for substrate and modulator screening using enzyme-reactor chromatography/tandem mass spectrometry” (McMaster University, priority 2005, published 2006).
